The supplement of paper PMC9170038

System: K4 kissing-loop RNA reporter
Test: apparent KD of K4 kissing-loop reporter; higher = weaker reporter binding
Conditions: Eterna round: R107
Protocol: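 RNA-MaP round R107: designed RNA switches with theophylline, tryptophan, arginine or FMN aptamers are transcribed on-chip within common flanks. They are titrated with a labelled K4 kissing-loop RNA reporter in RNA-MaP buffer (100 mM Tris pH 7.5, 80 mM KCl, 4 mM MgCl2), without ligand or with the indicated ligand. Median apparent KD per design.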

[1] = input ligand: theophylline 20 uM
[2] = input ligand: tryptophan 2.4 mM
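Note: bound reporter read as fluorescence of individual clusters on recovered sequencing chips by microscopy, with normalized cluster intensities fitted with a binding model.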

Sequence	apparent KD of K4 kissing-loop reporter (input ligand: FMN 200 uM)	apparent KD of K4 kissing-loop reporter (input ligand: arginine 13.2 mM)	apparent KD of K4 kissing-loop reporter (input ligand: none)	apparent KD of K4 kissing-loop reporter [1]	apparent KD of K4 kissing-loop reporter [2]
CCGGCCCAGCCGGAUACCAGUGCGCCGCAGGGAACGGCGGGCCCAGAGUGAUGUUCGGGACACCCUUGGCAGCCGCCUGGGUCGC [#2 Same State - Theophylline B Attempt #27 (HarryS)]	234 nM	197 nM	309 nM	314 nM	297 nM
CCGGGCGGCUGAAGGAGCGGGCGGGCCCGAGUGAUGUUCGGGUGGGCCGUGAGGCCCGGAGCCCAGGUAGGUCGCGGUUCCGUCC [#2 Same State - Arginine B Attempt #18 (HarryS)]	201 nM	139 nM	167 nM	196 nM	140 nM
CCUCACGUAGGACUAGUGAUGUUAGACUACCGAGGACCGGUACGGCCGCCACUCGUCGUACAAGAUAACCAUCUGCCAGUAUACA	122 nM	103 nM	117 nM	107 nM	168 nM
CCUUUAGGCUCGGCCGCCACUCCAGUGAUGUUGGAGGUGCGUACAGAGCUAGAAAGCGUUAUCAGGAGGACCGGGAGUUUUAACG [Leorte]	98.3 nM	107 nM	103 nM	101 nM	110 nM
CGACUAGUCUUGCAACCCUAGUCGAUAUGCUAGGAUAUCAGGAAACUGAGAAGGAGUUUACUUGCAGUGAUGUUGCAAGAAUAAU [KL-SSFMN-A10]	135 nM	153 nM	133 nM	172 nM	129 nM
CGAGCUUCCUGGGAUACCAGUCGGAGUCUCAGAGCUCGGAGUGAUGUUCUGGGAUGUUUCGGCCCUUGGCAGCUCUGGGACUCCU [#2 Exclusion - Theophylline B Attempt #20 (HarryS)]	1000 nM	576 nM	767 nM	883 nM	797 nM
CGAGUCCUGAGGAGUGAUGUUCCUCGGCCACGAGGACCGGUACGGCCGCCACUCGUUACUCGGGCUUAGUGGCUAGCACUAAGCU [Tirete]	200 nM	249 nM	203 nM	238 nM	118 nM
CGAUACGGAAAUACGUGUCUCUAUUCAGAAGGAGCGUGGUAGUACACAGGUAGGUCGCUGAAUUUUAAACUAGUGAUGUUAGUCU [JR_SSArginiA_Sub005]	317 nM	281 nM	331 nM	292 nM	259 nM
CGAUAGGGAAGUCGAUUGCUCACUGGUAAACGAGGACCGGUACGGCCGCCACUCGGGUCCAGUGAUGUUGGACUUUGUGGCGGGC [Edladian]	117 nM	99.5 nM	104 nM	99.5 nM	109 nM
CGCAAGCAGCCAGUGAUGUUGGCCGCCUUGCGAGGACCGGUACGGCCGCCACUCGAAGGCGGCUACUAGUAAACCGCCUAACGGA [KL-XTryp-A17]	105 nM	91.1 nM	95.6 nM	81.2 nM	184 nM
CGCAAUAUUACGGAGUGAUGUUUCGUAGUCCGAGGACCGGUACGGCCGCCACUCGCUGGCGUUGGCCCAUAGACCGACGGAAUCG [theeternabot_sameState_KL_Trp_A_39]	246 nM	252 nM	257 nM	236 nM	238 nM
CGCAGGAUGGAAGGAUAUGGGAGUUGACGUCGCCGAGCUAACCUUCUGCACGGAGUGAUGUUUAGACCAGAAGGUCCUCGGAGCA [theeternabot_exclusion_KL_FMN_B_17]	1210 nM	997 nM	1610 nM	1150 nM	1180 nM
CGCAGUGAUGUUGCGAGUAGCUACAGGGAAGGAGCGUGCUAGAGCACAGGUAGGUCGCCCACGCAGUGAUGUUGUGUUAAAGGGU [Exclusion Arginine A GF 12]	141 nM	116 nM	123 nM	149 nM	117 nM
CGCCAGUGAUGUUGGUGCAGCUACCGGGAAGGAGCGCCCAUAAGGGCAGGUAGGUCGCCCGGGCAGUGAUGUUGCCUCAUGCCGC [Exclusion Arginine A GF 22]	243 nM	236 nM	273 nM	234 nM	238 nM
CGCCGCAAGGCGAGCGCUCCCACUCCGGAAGGAGCGCCCGGAAGGGCAGGUAGGUCGCCGGAGUGAUGUUCCGGUGGAGGGCUCG [#2 Exclusion - Arginine A Attempt #13 (Inspired by Omei)]	358 nM	248 nM	334 nM	491 nM	416 nM
CGCCGCAAGGCGGGCCGGCCCACUCCGGAAGGAGCGCCCGCAAGGGCAGGUAGGUCGCCGGAGUGAUGUUCCGGUGGCCGGCCCG [#2 Exclusion - Arginine A Attempt #3 (Inspired by Omei)]	433 nM	244 nM	376 nM	592 nM	354 nM
CGCCGUAAGGCGGUCGCUCCCACUCCGGAAGGAGCGCCCGGAAGGGCAGGUAGGUCGCCGGAGUGAUGUUCCGGUGGAGGGACCG [#2 Exclusion - Arginine A Attempt #9 (Inspired by Omei)]	587 nM	295 nM	365 nM	270 nM	367 nM
CGCGCGCGCGCGCGCGCGCGCGCGCGAAGUGAGGAUAUUUAGGGAGAAAGAAGGCACUAUAAAAUAUAGUGAUGUUAUAUAAGGG [SSFMNA.B]	920 nM	499 nM	720 nM	203 nM	496 nM
CGCGCGCGCUGAGAGGCGCGCGCGAAUGAUACCAGUAUAUAAGAAUACCCUUGGCAGCAUAAGAAAGAUAUAGUGAUGUUGUAUA [SSTheophA.D]	75.3 nM	199 nM	43.1 nM	201 nM	29 nM
CGGAUCGCAUCAGGAUAUCUCUCAUCAGUGAUGUUGGUGAAGCGUACGCGAAAGCGUACGCAGAUGAGAGAAGGGAUGCGAUCCG	467 nM	763 nM	1670 nM	766 nM	945 nM
CGGCCGUUAUGAGAUACCAGAGUGGCGACCAGUGAUGUUGGUCGACGCUUGCGGUCGUCUCUCCCUUGGCAGCUUAGUACGAAAG [Inisar]	97.4 nM	88.2 nM	91.8 nM	73.8 nM	91.3 nM
CGGCGGAGUGAUGUUCCACCUACUGCGGAUACCAGCUUUGCCAGAGGCCCUUGGCAGCCGCACGGCUCAGUGAUGUUGGGUUGCG [Same State Theophylline A G12]	237 nM	162 nM	227 nM	219 nM	195 nM

Sequence	apparent KD of K4 kissing-loop reporter (input ligand: FMN 200 uM)	apparent KD of K4 kissing-loop reporter (input ligand: arginine 13.2 mM)	apparent KD of K4 kissing-loop reporter (input ligand: none)	apparent KD of K4 kissing-loop reporter [1]	apparent KD of K4 kissing-loop reporter [2]
CGGCUCUAUCCUAGUAUUAAGAGGGAGUUGCGAGGACCGGUACGGCCGCCACUCGAAGUAGUUUGGCCAGUGAUGUUGGUCUUAC [Qubeatonza]	223 nM	213 nM	129 nM	152 nM	421 nM
CGGGAUGUUAAAGGAUAUAGCAGGUGAUACAAGAAAGUGAGUGAUGUUUAUGUAGAUGAUGAUAUGUUAGAAGGUUAACAAAACG [abcdefghijkl]	1040 nM	726 nM	908 nM	686 nM	581 nM
CGUAGCAGACGAAGGAGCGGCUACCUGAUUCAAGGUGAUGCUUGAGUGAUGUUCAGGUGUAGCCAGGUAGGUCGCGUCUGCUACG [Arg B Ex t9]	201 nM	144 nM	164 nM	180 nM	170 nM
CGUUUAUAGCAGGAUACCAGUACCCAUUAUGUACGUUUAUAGUAGAGUGAUGUUCUAAAGUACCCUUGGCAGCUUCCUGUGUCCC [ExTheophylB.Ab]	163 nM	178 nM	190 nM	198 nM	150 nM
CUAUAAGUGCCGAGUGAUGUUCGGCCAAUACGAGGACCGGUACGGCCGCCACUCGGUCAGUGGGUGCCCACCGGGCAUGGCUGAC [Cecezaa]	174 nM	217 nM	176 nM	227 nM	112 nM
CUCGAGUGAUGUUCGAUUAUUUAUACAGAUACCAGUGAAUUUUAACACCCUUGGCAGCUGGUUGUAUCAUUUUUUUUUACUAAAG [JR_ExcTheophyA_Sub008]	140 nM	166 nM	179 nM	225 nM	133 nM
CUGACCAACAGCGAUACCAGCGUGGAGUGAUGUUCCGUGGAUCGGAGUGAUGUUCCGAAGCGCCCUUGGCAGCGCAGAAGCAGGA [Exclusion Theophylline B GF11]	197 nM	136 nM	201 nM	150 nM	152 nM
CUGCCUCACUCGGCCGCCACUGUAUAAAUGUGACAGUGAUGUUGUCGUCGGAAAGGGCACUUAGGCAGGACCGGGAGUUUCAGGC [theeternabot_exclusion_KL_Trp_B_20]	837 nM	409 nM	801 nM	870 nM	686 nM
CUUAAGAUAUGAGUGAUGUUCAUGUCCGAAGGAGCGUGCGAAAGCACAGGUAGGUCGCGGAUGUGAGUGAUGUUCAUGUAAGCGA [KL-XArg-A12 #analogue]	172 nM	105 nM	119 nM	135 nM	153 nM
CUUGAGACAUGAGUGAUGUUCAUGUCCGAAGGAGCGUGCGAAAGCACAGGUAGGUCGCGGACGUGAGUGAUGUUCAUGUGAGCGA [KL-XArg-A10 #analogue]	236 nM	163 nM	202 nM	223 nM	201 nM
CUUGGAAGGACGGCCGCCACUGGGCAGUGAUGUUGCCCGACCAGGUAACGCAGUGAUGUUGCGACCAGGACCGGGUCCUAGGAAU [Exclusion Tryptophan B GF 24]	161 nM	140 nM	155 nM	136 nM	105 nM
CUUGGCAUGCGCGAUACCAGCGAACAUAGCAAGCUACGGGUAGUGAUGUUAUCUGAAUAACGCCCUUGGCAGCGCACAUGCCGGC [clock]	872 nM	418 nM	593 nM	679 nM	712 nM
GAAAGAAAGAAUGAUACCAGACACCCGAGUGAUGUUCGGAGCAGAGUGAUGUUCUUUUAAGUCCCUUGGCAGCAUAAAAGAAAAG [whbob_SS_Theo_B_sa82]	109 nM	138 nM	153 nM	159 nM	119 nM
GACAACAGGGUGAGACUCACGGCGCCAGAAGGAGCGGUGAUUCCACCAGGUAGGUCGCUGGCCCAGUGAUGUUGGGCUUUGUGUC [Onoran]	129 nM	120 nM	138 nM	133 nM	123 nM
GACAAUUCCGCUUCCGAGCAUACUUGACUGAAGGAUAUCAUCGUGUUGAGAAGGUCAGUAACAGAGAGUGAUGUUCUUUGAGGUC [theeternabot_sameState_KL_FMN_A_19]	242 nM	168 nM	234 nM	207 nM	151 nM
GAGAACUCUUACGAUACCAGCCGGAGUGAUGUUCCGUGCUUGGACGUAGUAACCCGCACCGGCCCUUGGCAGCGUGGAUCCUAUG [Biorar]	86.1 nM	78.3 nM	82.3 nM	79.3 nM	74.4 nM
GAGAAUCUAAUUGAUACCAGAGUAAGAACCAGUGAUGUUGGAAGAUUCCCUAAUAAAUAACUCCCUUGGCAGCGGAAGAGAAUAG [Totally accidental 2]	142 nM	230 nM	176 nM	327 nM	172 nM
GAGGUACAGGCGGCCGCCACUAGUGAUGUUAGUGAUGUUAGAUAAAGUAUAUAUCGGCGUGUAGAUAGGACCGGGCCUGAUGGAG [ssrykmullin]	49 nM	33.6 nM	60 nM	42 nM	53.9 nM
GAGGUACAGGCGGCCGCCACUAGUGAUGUUAGUGAUGUUUGAUACUGUAUAUAUCGGCGUGUAGAUAGGACCGGGCCUGAUGGAG [znmkmullin]	122 nM	78.7 nM	100 nM	109 nM	91.8 nM
GAUGAUCGCGCGGCCGCCACUGGUCAGUGAUGUUGACAUUAAUGCGCCGAGUAGUAACGGCGCAACAGGACCGGGCGCGAUGUAG [#11 K4 Tryptophan B Same State]	165 nM	160 nM	143 nM	185 nM	171 nM
GCAACAUUGGCAGGAUAUCCUUCUCAGUGAUGUUGAGGGUUCAGCUAACGAAAGUUAGUUGUACCAGGAGAAGGGCUAAUGUUGC [Omei KL FMN B SS A v7]	416 nM	815 nM	1420 nM	906 nM	1440 nM
